Assay results published in article PMC9541495, “Understanding the interaction of 14‐3‐3 proteins with hDMX and hDM2: a structural and biophysical study” (The Febs Journal, 2022).
[ ]: non-standard residue; d: D form. pS = N[C@@H](COP(=O)(O)O)C(=O)O; FAM = 5,6-carboxyfluorescein; Ahx = NCCCCCC(=O)O

T1: 14‐3‐3η (human, UniProt Q04917 1-246)
T1 construct: 14-3-3 eta, human, full-length protein from the pProEx HTb-His-14-3-3 construct; Captured on an NTA chip in SPR; source: E. coli BL21(DE3), purified (Ni2+-NTA, dialysis)
T1 sequence (looked up): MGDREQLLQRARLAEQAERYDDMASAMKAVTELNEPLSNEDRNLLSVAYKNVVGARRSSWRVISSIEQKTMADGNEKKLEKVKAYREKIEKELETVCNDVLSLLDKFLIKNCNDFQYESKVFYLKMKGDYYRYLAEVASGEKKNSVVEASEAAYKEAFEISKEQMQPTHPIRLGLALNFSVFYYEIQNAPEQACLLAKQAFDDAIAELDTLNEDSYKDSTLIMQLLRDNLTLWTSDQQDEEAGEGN

T2: 14‐3‐3σ (human, UniProt P31947 1-248)
T2 construct: 14-3-3 sigma, human, full-length protein from the pProEx HTb-His-14-3-3 construct (used in the FA assays); Written as the protomer; tag removal is told only for the ∆C proteins; source: E. coli BL21(DE3), purified (Ni2+-NTA, dialysis)
T2 sequence (looked up): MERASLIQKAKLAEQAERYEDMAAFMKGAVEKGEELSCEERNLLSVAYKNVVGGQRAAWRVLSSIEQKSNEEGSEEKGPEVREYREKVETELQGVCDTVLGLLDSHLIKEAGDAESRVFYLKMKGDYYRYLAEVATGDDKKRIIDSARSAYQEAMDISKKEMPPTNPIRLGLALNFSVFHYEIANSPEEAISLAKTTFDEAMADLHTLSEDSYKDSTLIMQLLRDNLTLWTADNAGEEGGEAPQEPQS

T3: 14‐3‐3ζ (human, UniProt P63104 1-245)
T3 construct: 14-3-3 zeta, human, full-length protein from the pProEx HTb-His-14-3-3 construct; Written as the protomer; tag removal is told only for the ∆C proteins; source: E. coli BL21(DE3), purified (Ni2+-NTA, dialysis)
T3 sequence (looked up): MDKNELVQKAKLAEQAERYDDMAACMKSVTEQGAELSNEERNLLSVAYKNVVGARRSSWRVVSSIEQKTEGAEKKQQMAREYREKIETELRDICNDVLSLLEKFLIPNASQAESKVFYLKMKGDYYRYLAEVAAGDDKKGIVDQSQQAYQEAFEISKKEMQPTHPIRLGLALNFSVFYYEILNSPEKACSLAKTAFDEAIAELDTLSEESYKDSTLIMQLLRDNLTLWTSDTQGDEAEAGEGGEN

T4: 14‐3‐3τ (human, UniProt P27348 1-245)
T4 construct: 14-3-3 tau/theta, human, full-length protein from the pProEx HTb-His-14-3-3 construct; Written as the protomer; tag removal is told only for the ∆C proteins; also called τ/θ; source: E. coli BL21(DE3), purified (Ni2+-NTA, dialysis)
T4 sequence (looked up): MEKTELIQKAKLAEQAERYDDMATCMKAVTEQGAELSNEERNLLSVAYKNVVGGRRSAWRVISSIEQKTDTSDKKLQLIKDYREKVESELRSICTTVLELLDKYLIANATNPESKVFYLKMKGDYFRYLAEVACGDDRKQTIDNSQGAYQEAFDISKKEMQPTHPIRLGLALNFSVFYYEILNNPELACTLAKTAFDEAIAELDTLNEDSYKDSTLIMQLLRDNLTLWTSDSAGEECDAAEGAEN

T5: 14‐3‐3ε (human, UniProt P62258 1-255)
T5 construct: 14-3-3 epsilon, human, full-length protein from the pProEx HTb-His-14-3-3 construct; Written as the protomer; tag removal is told only for the ∆C proteins; source: E. coli BL21(DE3), purified (Ni2+-NTA, dialysis)
T5 sequence (looked up): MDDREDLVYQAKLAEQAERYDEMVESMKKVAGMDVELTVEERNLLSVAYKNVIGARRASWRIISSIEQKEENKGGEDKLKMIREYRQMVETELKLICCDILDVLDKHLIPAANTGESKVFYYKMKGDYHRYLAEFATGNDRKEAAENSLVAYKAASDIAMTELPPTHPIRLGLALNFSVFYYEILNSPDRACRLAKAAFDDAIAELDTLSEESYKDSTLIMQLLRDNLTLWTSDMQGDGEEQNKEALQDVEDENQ

B1: Ac‐hDMX_(335‐349) ^pSer342 (peptide)
peptide: Ac-SKLTHSL[pS]TSDITAI-NH2
SMILES: CC[C@H](C)[C@H](NC(=O)[C@H](C)NC(=O)[C@@H](NC(=O)[C@@H](NC(=O)[C@H](CC(=O)O)NC(=O)[C@H](CO)NC(=O)[C@@H](NC(=O)[C@H](COP(=O)(O)O)NC(=O)[C@H](CC(C)C)NC(=O)[C@H](CO)NC(=O)[C@H](Cc1c[nH]cn1)NC(=O)[C@@H](NC(=O)[C@H](CC(C)C)NC(=O)[C@H](CCCCN)NC(=O)[C@H](CO)NC(C)=O)[C@@H](C)O)[C@@H](C)O)[C@@H](C)CC)[C@@H](C)O)C(N)=O
notes: hDMX (human double minute 4 protein, hDM4), human, residues 335-349; Acetylated form used for ITC and SPR; source: synthetic peptide (Fmoc SPPS, HPLC purified)
B2: Ac‐hDMX_(335‐373) ^pSer342/pSer367 (peptide)
peptide: Ac-SKLTHSL[pS]TSDITAIPEKENEGNDVPDCRRTI[pS]APVVRP-NH2
SMILES: CC[C@H](C)[C@H](NC(=O)[C@H](CC(=O)O)NC(=O)[C@H](CO)NC(=O)[C@@H](NC(=O)[C@H](COP(=O)(O)O)NC(=O)[C@H](CC(C)C)NC(=O)[C@H](CO)NC(=O)[C@H](Cc1c[nH]cn1)NC(=O)[C@@H](NC(=O)[C@H](CC(C)C)NC(=O)[C@H](CCCCN)NC(=O)[C@H](CO)NC(C)=O)[C@@H](C)O)[C@@H](C)O)C(=O)N[C@H](C(=O)N[C@@H](C)C(=O)N[C@H](C(=O)N1CCC[C@H]1C(=O)N[C@@H](CCC(=O)O)C(=O)N[C@@H](CCCCN)C(=O)N[C@@H](CCC(=O)O)C(=O)N[C@@H](CC(N)=O)C(=O)N[C@@H](CCC(=O)O)C(=O)NCC(=O)N[C@@H](CC(N)=O)C(=O)N[C@@H](CC(=O)O)C(=O)N[C@H](C(=O)N1CCC[C@H]1C(=O)N[C@@H](CC(=O)O)C(=O)N[C@@H](CS)C(=O)N[C@@H](CCCNC(=N)N)C(=O)N[C@@H](CCCNC(=N)N)C(=O)N[C@H](C(=O)N[C@H](C(=O)N[C@@H](COP(=O)(O)O)C(=O)N[C@@H](C)C(=O)N1CCC[C@H]1C(=O)N[C@H](C(=O)N[C@H](C(=O)N[C@@H](CCCNC(=N)N)C(=O)N1CCC[C@H]1C(N)=O)C(C)C)C(C)C)[C@@H](C)CC)[C@@H](C)O)C(C)C)[C@@H](C)CC)[C@@H](C)O
notes: hDMX (human double minute 4 protein, hDM4), human, residues 335-373; Acetylated form used for ITC, SPR and crystallography; source: synthetic peptide (Fmoc SPPS on Rink amide ProTide resin, HPLC purified)
B3: FAM‐Ahx‐hDMX_(335‐373) ^pSer342/pSer367 (peptide)
peptide: {FAM-Ahx}-SKLTHSL[pS]TSDITAIPEKENEGNDVPDCRRTI[pS]APVVRP-NH2
notes: hDMX (human double minute 4 protein, hDM4), human, residues 335-373; Tracer form used in the FA assays; source: synthetic peptide (Fmoc SPPS on Rink amide ProTide resin, HPLC purified)
B4: Ac‐hDMX_(361‐374) ^pSer367 (peptide)
peptide: Ac-DCRRTI[pS]APVVRPK-NH2
SMILES: CC[C@H](C)[C@H](NC(=O)[C@@H](NC(=O)[C@H](CCCNC(=N)N)NC(=O)[C@H](CCCNC(=N)N)NC(=O)[C@H](CS)NC(=O)[C@H](CC(=O)O)NC(C)=O)[C@@H](C)O)C(=O)N[C@@H](COP(=O)(O)O)C(=O)N[C@@H](C)C(=O)N1CCC[C@H]1C(=O)N[C@H](C(=O)N[C@H](C(=O)N[C@@H](CCCNC(=N)N)C(=O)N1CCC[C@H]1C(=O)N[C@@H](CCCCN)C(N)=O)C(C)C)C(C)C
notes: Acetylated form used for ITC, SPR and crystallography; source: synthetic peptide (Fmoc SPPS, HPLC purified)
B5: 14‐3‐3γ (natural protein, human, UniProt P61981 1-247, looked up)
chain: MVDREQLVQKARLAEQAERYDDMAAAMKNVTELNEPLSNEERNLLSVAYKNVVGARRSSWRVISSIEQKTSADGNEKKIEMVRAYREKIEKELEAVCQDVLSLLDNYLIKNCSETQYESKVFYLKMKGDYYRYLAEVATGEKRATVVESSEKAYSEAHEISKEHMQPTHPIRLGLALNYSVFYYEIQNAPEQACHLAKTAFDDAIAELDTLNEDSYKDSTLIMQLLRDNLTLWTSDQQDDDGGEGNN
notes: 14-3-3 gamma, human, full-length protein from the pProEx HTb-His-14-3-3 construct; Written as the protomer; tag removal is told only for the ∆C proteins; source: E. coli BL21(DE3), purified (Ni2+-NTA, dialysis)
B6: 14‐3‐3β (natural protein, human, UniProt P31946 1-246, looked up)
chain: MTMDKSELVQKAKLAEQAERYDDMAAAMKAVTEQGHELSNEERNLLSVAYKNVVGARRSSWRVISSIEQKTERNEKKQQMGKEYREKIEAELQDICNDVLELLDKYLIPNATQPESKVFYLKMKGDYFRYLSEVASGDNKQTTVSNSQQAYQEAFEISKKEMQPTHPIRLGLALNFSVFYYEILNSPEKACSLAKTAFDEAIAELDTLNEESYKDSTLIMQLLRDNLTLWTSENQGDEGDAGEGEN
notes: 14-3-3 beta, human, full-length protein from the pProEx HTb-His-14-3-3 construct; Written as the protomer; tag removal is told only for the ∆C proteins; source: E. coli BL21(DE3), purified (Ni2+-NTA, dialysis)

Legend:
Settings in all cases: both partners purified
[1] = target: T1, 14‐3‐3η; assay: SPR; 14-3-3η immobilised on an NTA sensor chip (Ni2+ capture and amine coupling, about 2000 RU); acetylated peptides injected, 11 serial dilutions from 10x the FA Kd; 25 °C; Biacore T200; multicycle kinetics fitted to a Langmuir model, Kd from steady state dose-response
[2] = target: T1, 14‐3‐3η; assay: ITC; acetylated peptide in the syringe titrated into 14-3-3η in the cell; 25 °C; 25 mM HEPES pH 7.5, 100 mM NaCl, 10 mM MgCl2, 0.5 mM TCEP; MicroCal iTC200
[3] = target: T2, 14‐3‐3σ; assay: fluorescence polarisation; fluorescence anisotropy, direct titration: 14-3-3 protein titrated (1/2 dilution series) against 50 nM FAM-Ahx tracer peptide; 10 mM HEPES, 150 mM NaCl, 0.1% Tween 20, 0.1% BSA, pH 7.4; 384 well plates, triplicates; protein concentration as 14-3-3 monomer; 1:1 fit, biphasic curves fitted as two separate 1:1 events (Kd1, Kd2)
[4] = target: T3, 14‐3‐3ζ; assay: as above
[5] = target: T4, 14‐3‐3τ; assay: as above
[6] = target: T5, 14‐3‐3ε; assay: as above
[7] = target: B3; assay: as above
[8] = target: T6, FAM‐Ahx‐hDM2_(160‐192) ^pSer166/pSer186 (human, phosphoserine at 166 and at 186; N-terminal FAM-Ahx (5,6-carboxyfluorescein on an aminohexanoic acid linker); C-terminal amide); assay: as above
T6 construct: hDM2 (human double minute 2 protein), human, residues 160-192; Tracer form used in the FA assays; source: synthetic peptide (Fmoc SPPS on Rink amide ProTide resin, HPLC purified)

Kd [1] [nM]	Kd [2] [nM]	dH [2] [kcal/mol]	stoichiometry N [2]	koff [1] [s⁻¹]	kon [1] [M⁻¹ s⁻¹]	Kd1 (first binding event) [7] [µM]	Binder	also measured
37000	21000 ± 3000	-5.11 ± 0.239	0.72	–	–	–	B1	–
8.6	14 ± 10	-5.28 ± 0.167	0.94	0.0048	1.51e+06	–	B2	–
–	–	–	–	–	–	–	B3	binding result [3]: binds; binding result [4]: binds; binding result [5]: binds; binding result [6]: binds
189	870 ± 95	-3.85 ± 0.0478	1.28	0.121	389000	–	B4	–
–	–	–	–	–	–	0.091 ± 0.015	B5	Kd1 (first binding event) [8]: 0.089 ± 0.01 µM
–	–	–	–	–	–	0.026 ± 0.099	B6	–
